According to patent US20220267469A1 (LIPUM, published 2022):
Substitutions are numbered along the chain they refer to. Names may count otherwise.

T1: Biotinylated human BSSL (human, UniProt P19835 21-753, Biotinylated on glycosacarides, 30-40 biotin/BSSL)
T1 construct: hBSSL biotinylated in house; also called b-hBSSL; human BSSL-biotin
T1 sequence: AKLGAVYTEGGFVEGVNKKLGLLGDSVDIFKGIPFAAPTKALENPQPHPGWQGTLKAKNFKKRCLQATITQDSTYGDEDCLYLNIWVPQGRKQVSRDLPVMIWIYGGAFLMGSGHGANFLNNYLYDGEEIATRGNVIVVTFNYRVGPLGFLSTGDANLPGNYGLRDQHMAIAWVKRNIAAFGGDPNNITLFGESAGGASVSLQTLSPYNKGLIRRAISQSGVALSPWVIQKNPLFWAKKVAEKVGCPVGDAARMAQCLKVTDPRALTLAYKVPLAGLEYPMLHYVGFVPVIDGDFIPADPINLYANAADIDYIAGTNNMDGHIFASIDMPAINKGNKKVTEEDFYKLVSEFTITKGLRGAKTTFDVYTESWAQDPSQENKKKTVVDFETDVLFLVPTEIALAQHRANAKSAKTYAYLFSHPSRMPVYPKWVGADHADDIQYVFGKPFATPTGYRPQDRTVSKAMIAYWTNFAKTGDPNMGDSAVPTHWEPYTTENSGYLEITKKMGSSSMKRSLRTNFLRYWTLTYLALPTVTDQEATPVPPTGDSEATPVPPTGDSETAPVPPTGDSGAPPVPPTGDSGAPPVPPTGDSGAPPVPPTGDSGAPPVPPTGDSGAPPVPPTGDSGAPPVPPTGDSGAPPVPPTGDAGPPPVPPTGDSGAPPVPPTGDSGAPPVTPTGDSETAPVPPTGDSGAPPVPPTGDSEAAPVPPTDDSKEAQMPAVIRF

T2: Human BSSL (bile salt-stimulated lipase), native (human, UniProt P19835 21-753)
T2 construct: Native full-length protein purified from human milk (Astra Hässle AB); also called hBSSL; non-biotinylated human BSSL
T2 sequence: T1 sequence

T3: Mouse BSSL, recombinant (mouse, UniProt Q64285 21-599)
T3 construct: Bought (R&D Systems, Cat. no 5658-CE); also called mBSSL; murine BSSL
T3 sequence: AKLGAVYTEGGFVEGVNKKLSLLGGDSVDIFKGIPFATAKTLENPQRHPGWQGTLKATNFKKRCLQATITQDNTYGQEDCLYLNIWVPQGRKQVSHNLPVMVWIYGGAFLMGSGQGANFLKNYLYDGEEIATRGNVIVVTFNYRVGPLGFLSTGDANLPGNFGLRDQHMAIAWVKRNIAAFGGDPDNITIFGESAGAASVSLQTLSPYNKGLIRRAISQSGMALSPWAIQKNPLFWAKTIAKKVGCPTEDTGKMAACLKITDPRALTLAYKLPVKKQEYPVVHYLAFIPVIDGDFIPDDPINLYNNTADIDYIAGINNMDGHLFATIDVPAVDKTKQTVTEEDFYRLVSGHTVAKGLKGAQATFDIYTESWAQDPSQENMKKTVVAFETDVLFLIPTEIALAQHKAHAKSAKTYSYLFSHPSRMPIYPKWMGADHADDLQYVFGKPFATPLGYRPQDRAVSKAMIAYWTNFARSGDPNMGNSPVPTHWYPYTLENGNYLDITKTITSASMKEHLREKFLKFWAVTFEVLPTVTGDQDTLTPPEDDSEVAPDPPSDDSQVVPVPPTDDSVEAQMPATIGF

B1: S-SL048-38 hIgG4 S228P (antibody, V domains shown)
VH: QVQLVQSGAEVKKPGASVKVSCKASGYTFTSYNMHWVRQAPGQGLEWMGVINPGDGATSYAQKFQGRVTMTRDTSTSTVYMELSSLRSEDTAVYYCARDYYGSSPLGYWGQGTLVTVSS
VL: DIQMTQSPSSLSASVGDRVTITCRASPSISYLNWYQQKPGKAPKLLIYATSSLASGVPSRFSGSGSGTDFTLTISSLQPEDFATYYCQQRSSSPTFGQGTKLEIK
notes: Tested as human IgG4 S228P
B2: S-SL048-66 hIgG4 S228P (antibody, V domains shown)
VH: B1 VH with A61N, Q65K
VL: B1 VL with R24S, P27Q, L32M, A49D, T50A, Q88H, S93T
notes: Tested as human IgG4 S228P
B3: S-SL048-65 hIgG4 S228P (antibody, V domains shown)
VH: B1 VH with M48I, Q65K
VL: B1 VL with R24S, P27Q, A49D, T50A, A54P, Q88H
notes: Tested as human IgG4 S228P
B4: S-SL048-48 hIgG4 S228P (antibody, V domains shown)
VH: B1 VH with M48I
VL: B1 VL with L32M, S52R, A54Q, Q88H
notes: Tested as human IgG4 S228P
B5: S-SL048-41 hIgG4 S228P (antibody, V domains shown)
VH: B1 VH with M48I, N52Y, Q65K
VL: B1 VL with P27S, L32M, S52R, A54P, Q88H
notes: Tested as human IgG4 S228P
B6: S-SL048-40 hIgG4 S228P (antibody, V domains shown)
VH: B1 VH with M48I, G54S
VL: B1 VL with P27S, T50A, S52R, A54P
notes: Tested as human IgG4 S228P
B7: S-SL048-103 hIgG4 S228P (antibody, V domains shown)
VH: B1 VH with Q65K
VL: B1 VL with P27S, L32M, N33H, Q88H
notes: Tested as human IgG4 S228P

Key:
[1] = target: T1, Biotinylated human BSSL; assay: flow cytometry displacement assay; 1.0 ug antibody, 1 ug b-hBSSL
Experimental: (§1) The 28 BSSL-specific hIgG4 antibodies and the five reference antibodies at different concentrations (ranging from 0.5 μg to 3.0 μg per reaction; see Table 10) were added to b-hBSSL (1 μg per reaction, see Table 2) in round-bottom polystyrene tubes, lx PBS (pH 7.4) was added to a final volume of 20 μl and the antibody/b-hBSSL mixtures were incubated for 30 min. at +4° C. to facilitate binding of antibodies to BSSL. Buffy coat (50 μl) was then added to each antibody/b-hBSSL mixture and incubation continued for another 30 min at +4° C. Thereafter, 2 ml of FACS lysing solution (BD Biosciences) was added and the cells were incubated for 10 min at room temperature in order to lyse erythrocytes and fix the white blood cells. The cells were then centrifuged for 5 min. at 200×g, the resulting pellets were washed by adding 2 ml of FACS buffer (1×PBS supplemented with 1% FCS and 0.1% NaN3) and centrifuged again. Finally, the supernatants were discarded and the cells were resuspended in the last drop of liquid, approximately 50 μl.
(§2) 5 μl of BV421-labelled anti-human CD14 (BD Biosciences) and 5 μl of BB515-labelled streptavidin (BD Biosciences) was added to each tube and incubated for 30 min, at +4° C., protected from light. Thereafter, cells were washed twice with FACS buffer, resuspended in 500 μl FACS buffer, and run on BD LSRII flow cytometer (BD Biosciences). Finally, data were analyzed using FlowJo software (BD Biosciences).

[2] = target: T1, Biotinylated human BSSL; assay: flow cytometry displacement assay; 0.5 ug antibody, 1 ug b-hBSSL
Experimental: as §1, §2

[3] = target: T2, Human BSSL (bile salt-stimulated …); assay: SPR single cycle kinetics, hIgG4 S228P captured by anti-Fab
Experimental: (§3) Kinetic parameters of the hIgG4 S228P clones were determined by SPR using BIACORE® T200 (GE Healthcare). Single cycle kinetics was used to measure the affinity of the purified hIgG4 molecules to human and mouse BSSL. An anti-Fab antibody (GE Healthcare, #28958325) was immobilized on a CM5 S sensor chip by primary amine coupling using NHS-EDC chemistry. hIgG4 was captured by the anti-Fab antibody, and subsequently, five different concentrations of hBSSL (1:5 dilutions starting from 50 nM) or mBSSL (1:5 dilutions starting from 500 nM) were injected over the surface. The sensor chip surface was regenerated with 10 mM glycine-HCl pH 2.1. For binding to human BSSL, single cycle kinetic data was fitted to a 1:1 binding model and kinetic parameters were retrieved using software BlAevaluation. For mouse BSSL, a steady state analysis was performed by plotting the response level at equilibrium against each concentration, and KD values were retrieved by the BlAevalution software.

[4] = target: T3, Mouse BSSL, recombinant; assay: SPR steady state, hIgG4 S228P captured by anti-Fab
Experimental: as §3

[5] = target: T1, Biotinylated human BSSL; assay: flow cytometry displacement assay; 1.5 ug antibody, 1 ug b-hBSSL
Experimental: as §1, §2

[6] = target: T1, Biotinylated human BSSL; assay: flow cytometry displacement assay; 3.0 ug antibody, 1 ug b-hBSSL
Experimental: as §1, §2

[7] = target: T1, Biotinylated human BSSL; assay: flow cytometry displacement assay; 2.0 ug antibody, 1 ug b-hBSSL
Experimental: as §1, §2

| Binder | percentage reduction of b-hBSSL binding to CD14+ monocytes [1] [%] | percentage reduction of b-hBSSL binding to CD14+ monocytes [2] [%] | Kd [3] [µM] | Kd [4] [µM] | percentage reduction of b-hBSSL binding to CD14+ monocytes [5] [%] | percentage reduction of b-hBSSL binding to CD14+ monocytes [6] [%] | percentage reduction of b-hBSSL binding to CD14+ monocytes [7] [%] |
| --- | --- | --- | --- | --- | --- | --- | --- |
| B1 | 44 | 6 | 0.001 | 0.067 | 52 | 51 | – |
| B2 | 12 | 12 | 0.008 | 0.083 | 39 | 51 | 43 |
| B3 | 23 | 5 | – | 0.03 | 21 | 39 | 35 |
| B4 | 23 | 28 | 0.0008 | 0.041 | 50 | 68 | 61 |
| B5 | 29 | 12 | 0.0012 | 0.079 | 51 | 72 | 71 |
| B6 | 28 | 20 | 0.001 | 0.087 | 44 | 53 | – |
| B7 | -1 | 12 | 0.0017 | 0.199 | 26 | 69 | – |
